Test results reported in publication PMC3740443, “A Novel Function for the Conserved Glutamate Residue in the Walker B Motif of Replication Factor C”.

Tests used:
[1] = biological target: PCNA (Saccharomyces cerevisiae) (UniProt P15873); assay: surface plasmon resonance; details: cited from earlier work
[2] = biological target: AF488-labeled PCNA (UniProt P15873); assay: other fluorescence titration; PCNA opening (unquenching) assay: fluorescence of 10 nM PCNA-AF488_2 at 517 nm, increasing RFC, 0.5 mM ATP; assay buffer; equilibrium, quadratic fit
[3] = biological target: MDCC labeled PCNA (UniProt P15873); assay: other fluorescence titration; fluorescence intensity of 10 nM PCNA-MDCC at 470 nm, increasing RFC, 0.5 mM ATP; assay buffer 30 mM HEPES-NaOH pH 7.5, 150 mM NaCl, 10 mM MgCl2, 0.5 mM EDTA, 2 mM DTT, 2% glycerol; equilibrium, quadratic fit
[4] = biological target: MDCC labeled PCNA (UniProt P15873); assay: other fluorescence titration; fluorescence intensity of 10 nM PCNA-MDCC at 470 nm, increasing RFC, 0.5 mM ATPγS in place of ATP; assay buffer; equilibrium, quadratic fit
[5] = biological target: AF488-labeled PCNA (UniProt P15873)
[6] = biological target: AF488-labeled PCNA (UniProt P15873); remark: listed apart in the source
[7] = biological target: AF488-labeled PCNA (UniProt P15873); assay: other fluorescence titration; PCNA opening (unquenching) assay: fluorescence of 10 nM PCNA-AF488_2 at 517 nm, increasing RFC, 0.5 mM ATPγS in place of ATP; assay buffer; equilibrium, quadratic fit
[8] = biological target: RFC WB-EA (Walker B Glu to Ala quadruple mutant);PCNA (Saccharomyces cerevisiae;Saccharomyces …, UniProt P38630;P40348;P38629;P40339;P38251;P15873 284-861;1-353;1-340;1-323;1-354;1-258, E425A;E141A;E118A;E115A|); assay: fluorescence anisotropy; 0.5 mM ATPgS; 2 uM PCNA; 20 nM p/t DNA-RhX, 0.5 mM ATPgS, varied RFC, with or without 2 uM PCNA; buffer, salt, pH and temperature not in the material (Section 3.1 text missing); details: protein: recombinant;recombinant; tags: Rfc1 N-terminal 6xHis and kinase recognition motif replacing residues 1-283;; copies: 1;1;1;1;1;3; label: X-rhodamine (RhX) on 5' end of template; primer-template: 26 bp duplex with 34 nt 5' template overhang
[9] = biological target: RFC clamp loader (WT; Rfc1 N-terminal truncation);PCNA (Saccharomyces cerevisiae;Saccharomyces …, UniProt P38630;P40348;P38629;P40339;P38251;P15873 284-861;1-353;1-340;1-323;1-354;1-258, |); assay: as above; details: protein: recombinant;recombinant; tags: Rfc1 N-terminal 6xHis and kinase recognition motif replacing residues 1-283;; copies: 1;1;1;1;1;3; label: X-rhodamine (RhX) on 5' end of template; primer-template: 26 bp duplex with 34 nt 5' template overhang
[10] = biological target: RFC WB-EQ (Walker B Glu to Gln quadruple mutant);PCNA (Saccharomyces cerevisiae;Saccharomyces …, UniProt P38630;P40348;P38629;P40339;P38251;P15873 284-861;1-353;1-340;1-323;1-354;1-258, E425Q;E141Q;E118Q;E115Q|); assay: as above; details: protein: recombinant;recombinant; tags: Rfc1 N-terminal 6xHis and kinase recognition motif replacing residues 1-283;; copies: 1;1;1;1;1;3; label: X-rhodamine (RhX) on 5' end of template; primer-template: 26 bp duplex with 34 nt 5' template overhang
[11] = biological target: RFC WB-EQ (Walker B Glu to Gln quadruple mutant) (Saccharomyces cerevisiae, UniProt P38630;P40348;P38629;P40339;P38251 284-861;1-353;1-340;1-323;1-354, E425Q;E141Q;E118Q;E115Q); assay: fluorescence anisotropy; 0.5 mM ATPgS; no PCNA; 20 nM p/t DNA-RhX, 0.5 mM ATPgS, varied RFC, with or without 2 uM PCNA; buffer, salt, pH and temperature not in the material (Section 3.1 text missing); details: protein: recombinant; tags: Rfc1 N-terminal 6xHis and kinase recognition motif replacing residues 1-283; copies: 1;1;1;1;1; label: X-rhodamine (RhX) on 5' end of template; primer-template: 26 bp duplex with 34 nt 5' template overhang
[12] = biological target: RFC clamp loader (WT; Rfc1 N-terminal truncation) (Saccharomyces cerevisiae, UniProt P38630;P40348;P38629;P40339;P38251 284-861;1-353;1-340;1-323;1-354); assay: as above; details: protein: recombinant; tags: Rfc1 N-terminal 6xHis and kinase recognition motif replacing residues 1-283; copies: 1;1;1;1;1; label: X-rhodamine (RhX) on 5' end of template; primer-template: 26 bp duplex with 34 nt 5' template overhang
[13] = biological target: RFC WB-EA (Walker B Glu to Ala quadruple mutant) (Saccharomyces cerevisiae, UniProt P38630;P40348;P38629;P40339;P38251 284-861;1-353;1-340;1-323;1-354, E425A;E141A;E118A;E115A); assay: as above; details: protein: recombinant; tags: Rfc1 N-terminal 6xHis and kinase recognition motif replacing residues 1-283; copies: 1;1;1;1;1; label: X-rhodamine (RhX) on 5' end of template; primer-template: 26 bp duplex with 34 nt 5' template overhang

Sequence of PCNA (Saccharomyces cerevisiae) (P15873 whole entry): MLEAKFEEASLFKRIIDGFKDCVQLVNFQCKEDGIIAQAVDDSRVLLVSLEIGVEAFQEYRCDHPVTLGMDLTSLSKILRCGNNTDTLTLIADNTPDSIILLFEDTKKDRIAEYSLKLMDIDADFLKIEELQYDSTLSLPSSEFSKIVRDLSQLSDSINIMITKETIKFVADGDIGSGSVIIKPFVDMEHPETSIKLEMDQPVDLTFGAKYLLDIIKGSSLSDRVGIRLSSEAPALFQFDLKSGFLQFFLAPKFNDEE

In the case of “Replication factor C (from UniProt P38630)”, the Kd [1] is listed as 1.3 nM.

Molecule “wild-type replication factor C (RFC) complex, Rfc1 lacking its first 283 residues (from UniProt P38630 284-861; P40348 1-353; P38629 1-340; P40339 1-323; P38251 1-354)” has a Kd [2] of 11 nM, a Kd [3] of 7.1 nM and a Kd [4] of 13 nM. For the same molecule, the PCNA opening: increase of AF488 fluorescence of 10 nM PCNA-AF488 2 at saturating RFC, 0.5 mM ATP [5] was 2 fold, the PCNA opening: increase of AF488 fluorescence of 10 nM PCNA-AF488 2 at saturating RFC, 0.5 mM ATPγS [6] was 1.5 fold and the Kd [7] was 5.8 nM.

B1: p/t DNA-RhX (26/60-mer primed template) (dsDNA)
DNA 1: TTCAGGTCAGAAGGGTTCTATCTCTGTTGGCCAGAATGTCCCTTTTATTACTGGTCGTGT
DNA 2: ACACGACCAGTAATAAAAGGGACATT
modifications: 5' C6 amino linker on the 60-mer template
With B1 the Kd [8] was 1800 ± 700 nM, the Kd [9] was 37 ± 13 nM and the Kd [10] was 460 ± 200 nM. For the same molecule, the Kd [11] was 690 ± 400 nM, the Kd [12] was 91 ± 28 nM and the Kd [13] was 1060 ± 200 nM.
